Results published in patent US20210347899A1 (BRIGHAM AND WOMEN S HOSPITAL, published 2021).
Numbering of substitutions follows the chain as printed. One block for each binder: values may come before it.

Tests used:
[1] = biological target: T1, full length cynomolgus KLRG1 (cynomolgus, UniProt A0A2K5WAP9 1-186); test: FACS on CHO-cynomolgus-KLRG1 cells
T1 construct: whole, on cells; also called Cyno KLRG1; CHO-cynomolgus-KLRG1
T1 sequence: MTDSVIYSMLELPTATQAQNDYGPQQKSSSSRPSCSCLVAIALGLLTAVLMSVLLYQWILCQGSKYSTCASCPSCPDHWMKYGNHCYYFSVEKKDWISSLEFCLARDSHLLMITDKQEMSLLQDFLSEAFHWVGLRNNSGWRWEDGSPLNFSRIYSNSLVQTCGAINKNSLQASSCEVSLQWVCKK
Method: (§1) Binding of anti-KLRG1 monoclonal antibodies to cell expressed human and cynomolgus-KLRG1 was carried out by FACS. Chinese hamster ovary (CHO) cells were stably transfected to express full length human KLRG1 (CHO-human-KLRG1) and cynomolgus KLRG1 (CHO-cynomolgus-KLRG1).

[2] = biological target: T2, full length human KLRG1 (human, UniProt Q96E93 1-195); test: E-cadherin binding inhibition study, FACS on CHO-hKLRG1 cells; labels of Table 12 stand one row too low, value agrees with ABC_G1N02 (5.03) in Table 8
T2 construct: whole, on cells; also called CHO-human-KLRG1; CHO-hKLRG1
T2 sequence (looked up): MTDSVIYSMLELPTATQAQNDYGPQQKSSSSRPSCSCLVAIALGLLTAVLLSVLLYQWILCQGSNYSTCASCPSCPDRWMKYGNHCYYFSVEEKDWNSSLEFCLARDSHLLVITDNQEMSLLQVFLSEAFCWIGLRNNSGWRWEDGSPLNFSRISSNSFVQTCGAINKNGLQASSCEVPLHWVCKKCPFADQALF
Method: (§2) The ability of monoclonal antibodies to inhibit E-cadherin/KLRG1 binding was measured by FACS. Binding of E-cadherin to CHO-hKLRG1 cells was first determined by incubating the KLRG1 expressing cells with varying concentration of HIS tagged recombinant E-cadherin and detected by FACS with anti-HIS detection antibody.
(§3) IC50 values for each antibody were derived from E-cadherin binding inhibition studies and plotted against IFNγ production levels measured in CD8+ T cells IFNγ release assays.

[3] = biological target: T3, cynomolgus KLRG1 ECD (cynomolgus, biotinylated in the OCTET assay, site not stated); test: hybridoma screen for binding to KLRG1 ECD
T3 construct: Recombinant proteins were made as FC fusion or as HIS tagged versions; also called cynonolgus KLRG1 ECD
T3 chain: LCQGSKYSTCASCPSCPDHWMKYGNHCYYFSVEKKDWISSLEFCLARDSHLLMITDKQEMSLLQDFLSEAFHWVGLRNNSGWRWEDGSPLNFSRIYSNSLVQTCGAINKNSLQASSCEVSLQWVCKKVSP

[4] = biological target: T2, full length human KLRG1; test: FACS on CHO-human-KLRG1 cells
Method: as §1

[5] = biological target: T2, full length human KLRG1; test: cell-based or functional assay
[6] = biological target: T2, full length human KLRG1; test: FACS competition, loss of HIS tagged E-cadherin binding to CHO-hKLRG1 cells
Method: as §2

[7] = biological target: T2, full length human KLRG1; test: cell-based or functional assay; remark: listed apart in the source
[8] = biological target: T2, full length human KLRG1; test: E-cadherin binding inhibition study, FACS on CHO-hKLRG1 cells; labels of Table 12 stand one row too low, value agrees with ABC_G1N05 in Table 8
Method: as §2, §3

[9] = biological target: T2, full length human KLRG1; test: E-cadherin binding inhibition study, FACS on CHO-hKLRG1 cells; labels of Table 12 stand one row too low, value agrees with ABC_G1N07 in Table 8
Method: as §2, §3

[10] = biological target: T2, full length human KLRG1; test: E-cadherin binding inhibition study, FACS on CHO-hKLRG1 cells; labels of Table 12 stand one row too low, value agrees with ABC_G1N08 in Table 8
Method: as §2, §3

[11] = biological target: T2, full length human KLRG1; test: FACS, HIS tagged E-cadherin on CHO-hKLRG1 cells, anti-HIS detection
Method: as §2

EC50 [1]: 2.02 nM | IC50 [2]: 5 nM | binding result [3]: binds | EC50 [4]: 1.01 nM | IFNγ released (pg/ml), Sample 1 [5]: 1440 pg/mL | IFNγ released (pg/ml), Sample 2 [5]: 1290 pg/mL | IC50 [6]: 5.03 nM | IFNγ [7]: 1370 pg/mL
B1: ABC_G1N02 (antibody, V domains shown)
VH: QVTLKESGPGILQPSQTLSLTCSVSGFSLSTFGMGVGWIRQPSGKGLEWLAHIWWDDDKWYELALKSRLTISKDSSKNQVFLKIANVDTADTATYFCARVIYYGSRSAYYSMDYWGPGTSVTVSS
VL: DVLMTQTPLSLPVSLGAQASISCKSSQSIVHSNGHTYLEWYLQKPGQSPKILIYKVSNRFSGVPDRFSGSGSGTDFTLKISRVEAEDLGVYYCFQGSHVPVTFGAGTKLELK
notes: Mouse hybridoma monoclonal antibody

EC50 [1]: 0.5 nM | IC50 [8]: 23 nM | binding result [3]: binds | EC50 [4]: 39.8 nM | IFNγ released (pg/ml), Sample 1 [5]: 1010 pg/mL | IFNγ released (pg/ml), Sample 2 [5]: 1080 pg/mL | IC50 [6]: 23 nM | IFNγ [7]: 1050 pg/mL
B2: ABC_G1N05 (antibody, V domains shown)
VH: EVLLMESGGDLVKPGGSLKLSCAASGFTFSSYDMSWVRQTPDKRLEWVATISSSGRYTFYPDNVKGRFTISRDNAKNTLYLQVSNLKSEDTAMYYCSRTGVTTVVFTDYFDYWGQGTTLTVSS
VL: DIQMTQSPSSLSASLGERVSLTCRASQDIGNSLNWLQQGPDGTIKRLIYATSSLDSGVPKRFSGSRSGSTYSLTISSLESEDFVAYYCLQYLSSPPTFGGGTKLEIK
notes: as for B1

EC50 [1]: 0.98 nM | binding result [3]: binds | EC50 [4]: 0.94 nM | IFNγ released (pg/ml), Sample 1 [5]: 1580 pg/mL | IFNγ released (pg/ml), Sample 2 [5]: 1390 pg/mL | IC50 [9]: 9.6 nM | IC50 [6]: 9.6 nM | IFNγ [7]: 1480 pg/mL
B3: ABC_G1N07 (antibody, V domains shown)
VH: EVQLVESGGGLVKPGGSLKLSCTASGFTFRNYAMSWVRQTPEKRLEWVATISESGNYNNYPDNVKGRLTISRDNAKNNLYLQMSLLKSEDTAMYYCVRDDWEGRAMDYWGQGTSVTVSS
VL: B2 VL with D1G, Q27R, N31S, G39K, S69T, T70D, A85D, Y87F, L92A, P96W
notes: as for B1

EC50 [1]: 1.3 nM | binding result [3]: binds | EC50 [4]: 4.8 nM | IFNγ released (pg/ml), Sample 1 [5]: 1010 pg/mL | IFNγ released (pg/ml), Sample 2 [5]: 1060 pg/mL | IC50 [10]: 10 nM | IC50 [6]: 10 nM | IFNγ [7]: 1040 pg/mL
B4: ABC_G1N08 (antibody, V domains shown)
VH: QVQLQQSGAELAKPGASVKLSCKASGYTFTSYFLHWVKQRPGQGLEWIGYMNPSSGYTKCNQKFKDKATLTADKSSSTAYMQVSSLTYEDSAVYYCARDRIGYWDFDVWGTGTTVTVSS
VL: DVVMTQSQKFMSTTVGDRVSITCKASQNVGTAVAWYQQKPGQSPKLLIYSASNRYTGVPDRFTGSGSGTDFTLTITNMQSEDLADYFCQQYSSYLTFGAGTKLDLK
notes: as for B1

EC50 [11]: 1000 nM
B5: HIS tagged recombinant E-cadherin (ligand)
chain: DWVIPPISCPENEKGPFPKNLVQIKSNKDKEGKVFYSITGQGADTPPVGVFIIERETGWLKVTEPLDRERIATYTLFSHAVSSNGNAVEDPMEILITVTDQNDNKPEFTQEVFKGSVMEGALPGTSVMEVTATDADDDVNTYNAAIAYTILSQDPELPDKNMFTINRNTGVISVVTTGLDRESFPTYTLVVQAADLQGEGLSTTATAVITVTDTNDNPPIFNPTTYKGQVPENEANVVITTLKVTDADAPNTPAWEAVYTILNDDGGQFVVTTNPVNNDGILKTAKGLDFEAKQQYILHVAVTNVVPFEVSLTTSTATVTVDVLDVNEAPIFVPPEKRVEVSEDFGVGQEITSYTAQEPDTFMEQKITYRIWRDTANWLEINPDTGAISTRAELDREDFEHVKNSTYTALIIATDNGSPVATGTGTLLLILSDVNDNAPIPEPRTIFFCERNPKPQVINIIDADLPPNTSPFTAELTHGASANWTIQYNDPTQESIILKPKMALEVGDYKINLKLMDNQNKDQVTTLEVSVCDCEGAAGVCRKAQPVEAGLQIPA
notes: also called human E-cadherin; not shown: HIS tag
